Measured values reported in patent US20130058939.

Molecular target: mouse NMDA receptor NR1 subunit, P35438

B1: rt-PA (alteplase), recombinant human t-PA (protein)
chain: SYQVICRDEKTQMIYQQHQSWLRPVLRSNRVEYCWCNSGRAQCHSVPVKSCSEPRCFNGGTCQQALYFSDFVCQCPEGFAGKCCEIDTRATCYEDQGISYRGTWSTAESGAECTNWNSSALAQKPYSGRRPDAIRLGLGNHNYCRNPDRDSKPWCYVFKAGKYSSEFCSTPACSEGNSDCYFGNGSAYRGTHSLTESGASCLPWNSMILIGKVYTAQNPSAQALGLGKHNYCRNPDGDAKPWCHVLKNRRLTWEYCDVPSCSTCGLRQYSQPQFRIKGGLFADIASHPWQAAIFAKHRRSPGERFLCGGILISSCWILSAAHCFQERFPPHHLTVILGRTYRVVPGEEEQKFEVEKYIVHKEFDDDTYDNDIALLQLKSDSSRCAQESSVVRTVCLPPADLQLPDWTECELSGYGKHEALSPFYSERLKEAHVRLYPSSRCTSQHLLNRTVTDNMLCAGDTRSGGPQANLHDACQGDSGGPLVCLNDGRMTLVGIISWGLGCGQKDVPGVYTKVTNYLDWIRDNMRP
- net integrated increase in [Ca2+]i evoked by NMDA after 15 min exposure to t-PA (20 µg/ml): the net integrated increase in [Ca^2+]i (area under the curve expressed in arbitrary units) was enhanced by 37%
